Data reported in US20210403506A1 (XDCEXPLORER SHANGHAI, published 2021).
Numbered stars: 1 amine (or outer) side, 2 acyl side, 3 side chain; on linkers, the order of the positions; unused ones are H or OH. Square brackets hold non-standard residues; d marks the D form. Primed or numbered codes have the meaning given here. Ends that are not written are not given here. * marks the point of attachment. TP5C = (S)-4,5,6,7-tetrahydrothieno[2,3-c]pyridine-5-carboxylic acid, O=C([C@@H]1Cc2ccsc2CN1[*:1])[*:2]; TP6C = (S)-4,5,6,7-tetrahydrothieno[2,3-c]pyridine-6-carboxylic acid, O=C([C@@H]1Cc2ccsc2CN1[*:1])[*:2]; Bpa = N[C@@H](Cc1ccc(C(=O)c2ccccc2)cc1)C(=O)O; Diphenylacetyl = O=C(C(c1ccccc1)c1ccccc1)*; 2Nal = N[C@@H](Cc1ccc2ccccc2c1)C(=O)O; dNMeY = CN[C@H](Cc1ccc(O)cc1)C(=O)O; Hydrocinnamoyl = O=C(CCc1ccccc1)*; 3‑phenylpropyl = c1ccc(CCC*)cc1; Tic = O=C(O)[C@@H]1Cc2ccccc2CN1; dTic = O=C(O)[C@H]1Cc2ccccc2CN1; NMeL = CN[C@@H](CC(C)C)C(=O)O; NMeS = CN[C@@H](CO)C(=O)O; Nle = CCCC[C@H](N)C(=O)O; Thz = O=C(O)[C@@H]1CSCN1; dTi1c = not defined here; Nva = CCC[C@H](N)C(=O)O; Thz′ = not defined here

Target: T1, human Chemokine like receptor 1 (human, UniProt Q99788 1-373)
T1 sequence (looked up): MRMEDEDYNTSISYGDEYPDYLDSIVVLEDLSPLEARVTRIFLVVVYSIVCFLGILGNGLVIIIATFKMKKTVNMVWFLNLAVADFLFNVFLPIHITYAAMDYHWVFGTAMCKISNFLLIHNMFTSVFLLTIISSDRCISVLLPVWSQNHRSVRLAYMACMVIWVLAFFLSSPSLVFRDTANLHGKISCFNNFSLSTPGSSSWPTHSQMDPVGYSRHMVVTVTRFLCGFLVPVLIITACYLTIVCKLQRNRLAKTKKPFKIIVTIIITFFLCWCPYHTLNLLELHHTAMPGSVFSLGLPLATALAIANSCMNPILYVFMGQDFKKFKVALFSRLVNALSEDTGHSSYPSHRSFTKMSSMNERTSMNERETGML
Test: cell-based or functional assay

B1: YW-151 (peptide)
peptide: [dY]FLP[dS]QF[dA][dTi1c]S-OH
modifications: reading uncertain; also: printed as (D-Tyr)-Phe-Leu-Pro-(D-Ser)-Gln-Phe-(D-Ala)-(D-Ti1c)-Ser
  EC50 (µM), activation of Tango CMKLR1-bla U2OS cells: 0.027 µM

## {4‑biphenylacetyl}-[dY]FLP[dS]QF[dA][Tic]S-OH [YW-77]
  EC50 (µM), activation of Tango CMKLR1-bla U2OS cells: 0.053 µM

B2: YW-119 (peptide)
peptide: [dY]FLP[dS]Q[Bpa][dA][Tic]S-OH
modifications: N-terminus assumed
SMILES: CC(C)C[C@H](NC(=O)[C@H](Cc1ccccc1)NC(=O)[C@H](N)Cc1ccc(O)cc1)C(=O)N1CCC[C@H]1C(=O)N[C@H](CO)C(=O)N[C@@H](CCC(N)=O)C(=O)N[C@@H](Cc1ccc(C(=O)c2ccccc2)cc1)C(=O)N[C@H](C)C(=O)N1Cc2ccccc2C[C@H]1C(=O)N[C@@H](CO)C(=O)O
  EC50 (µM), activation of Tango CMKLR1-bla U2OS cells: 0.0099 µM

B3: YW-71 (peptide)
peptide: Hydrocinnamoyl-[dY]FLP[dS]QF[dA][Tic]S-OH
SMILES: CC(C)C[C@H](NC(=O)[C@H](Cc1ccccc1)NC(=O)[C@@H](Cc1ccc(O)cc1)NC(=O)CCc1ccccc1)C(=O)N1CCC[C@H]1C(=O)N[C@H](CO)C(=O)N[C@@H](CCC(N)=O)C(=O)N[C@@H](Cc1ccccc1)C(=O)N[C@H](C)C(=O)N1Cc2ccccc2C[C@H]1C(=O)N[C@@H](CO)C(=O)O
  EC50 (µM), activation of Tango CMKLR1-bla U2OS cells: 0.031 µM

## [dY]F[Nva]P[dS]QF[dA][Tic]S [YW-196]
  EC50 (µM), activation of Tango CMKLR1-bla U2OS cells: 0.039 µM

## phenethylcarbamothioyl-[dY]FLP[dS]QF[dA][Tic]S-OH [YW-73]
  EC50 (µM), activation of Tango CMKLR1-bla U2OS cells: 0.028 µM

## [dNMeY]F[NMeL][Thz′][dS]QF[dA][Tic][NMeS] (reading uncertain) [YW-124]
  EC50 (µM), activation of Tango CMKLR1-bla U2OS cells: 0.0013 µM

B4: YW-158 (peptide)
peptide: [dY]FLP[dS]QF[dA][TP5C]S-OH
modifications: N-terminus assumed
SMILES: CC(C)C[C@H](NC(=O)[C@H](Cc1ccccc1)NC(=O)[C@H](N)Cc1ccc(O)cc1)C(=O)N1CCC[C@H]1C(=O)N[C@H](CO)C(=O)N[C@@H](CCC(N)=O)C(=O)N[C@@H](Cc1ccccc1)C(=O)N[C@H](C)C(=O)N1Cc2sccc2C[C@H]1C(=O)N[C@@H](CO)C(=O)O
  EC50 (µM), activation of Tango CMKLR1-bla U2OS cells: 0.065 µM

B5: YW-74 (peptide)
peptide: {3‑phenylpropyl}-[dY]FLP[dS]QF[dA][Tic]S-OH
SMILES: CC(C)C[C@H](NC(=O)[C@H](Cc1ccccc1)NC(=O)[C@@H](Cc1ccc(O)cc1)NCCCc1ccccc1)C(=O)N1CCC[C@H]1C(=O)N[C@H](CO)C(=O)N[C@@H](CCC(N)=O)C(=O)N[C@@H](Cc1ccccc1)C(=O)N[C@H](C)C(=O)N1Cc2ccccc2C[C@H]1C(=O)N[C@@H](CO)C(=O)O
  EC50 (µM), activation of Tango CMKLR1-bla U2OS cells: 0.0062 µM

## {5‑phenylpentanoyl}-[dY]FLP[dS]QF[dA][Tic]S-OH [YW-76]
  EC50 (µM), activation of Tango CMKLR1-bla U2OS cells: 0.043 µM

## phenethylcarbamoyl-[dY]FLP[dS]QF[dA][Tic]S-OH [YW-72]
  EC50 (µM), activation of Tango CMKLR1-bla U2OS cells: 0.045 µM

B6: YW-154 (peptide)
peptide: [dNMeY]FLP[dS]QF[dA][dTi1c]S-OH
modifications: reading uncertain; also: printed as (D-NMe-Tyr)-Phe-Leu-Pro-(D-Ser)-Gln-Phe-(D-Ala)-(D-Ti1c)-Ser
  EC50 (µM), activation of Tango CMKLR1-bla U2OS cells: 0.034 µM

B7: YW-189 (peptide)
peptide: [dY]FLP[dS]QF[dA][Tic]S-NH2
modifications: N-terminus assumed
SMILES: CC(C)C[C@H](NC(=O)[C@H](Cc1ccccc1)NC(=O)[C@H](N)Cc1ccc(O)cc1)C(=O)N1CCC[C@H]1C(=O)N[C@H](CO)C(=O)N[C@@H](CCC(N)=O)C(=O)N[C@@H](Cc1ccccc1)C(=O)N[C@H](C)C(=O)N1Cc2ccccc2C[C@H]1C(=O)N[C@@H](CO)C(N)=O
  EC50 (µM), activation of Tango CMKLR1-bla U2OS cells: 0.0068 µM

B8: YW-159 (peptide)
peptide: [dY]FLP[dS]QF[dA][TP6C]S-OH
modifications: N-terminus assumed
SMILES: CC(C)C[C@H](NC(=O)[C@H](Cc1ccccc1)NC(=O)[C@H](N)Cc1ccc(O)cc1)C(=O)N1CCC[C@H]1C(=O)N[C@H](CO)C(=O)N[C@@H](CCC(N)=O)C(=O)N[C@@H](Cc1ccccc1)C(=O)N[C@H](C)C(=O)N1Cc2sccc2C[C@H]1C(=O)N[C@@H](CO)C(=O)O
  EC50 (µM), activation of Tango CMKLR1-bla U2OS cells: 0.018 µM

## [dY]F[Nle]P[dS]QF[dA][Tic]S [YW-197]
  EC50 (µM), activation of Tango CMKLR1-bla U2OS cells: 0.01 µM

## [dNMeY]F[NMeL][Thz][dS]QF[dA][Tic]S [YW-123]
  EC50 (µM), activation of Tango CMKLR1-bla U2OS cells: 0.001 µM

B9: YW-149 (peptide)
peptide: [dY]FLP[dS]QF[dA][dTic]S-OH
modifications: N-terminus assumed
SMILES: CC(C)C[C@H](NC(=O)[C@H](Cc1ccccc1)NC(=O)[C@H](N)Cc1ccc(O)cc1)C(=O)N1CCC[C@H]1C(=O)N[C@H](CO)C(=O)N[C@@H](CCC(N)=O)C(=O)N[C@@H](Cc1ccccc1)C(=O)N[C@H](C)C(=O)N1Cc2ccccc2C[C@@H]1C(=O)N[C@@H](CO)C(=O)O
  EC50 (µM), activation of Tango CMKLR1-bla U2OS cells: 0.021 µM

## {4‑phenylbutanoyl}-[dY]FLP[dS]QF[dA][Tic]S-OH [YW-75]
  EC50 (µM), activation of Tango CMKLR1-bla U2OS cells: 0.05 µM

B10: YW-78 (peptide)
peptide: Diphenylacetyl-[dY]FLP[dS]QF[dA][Tic]S-OH
SMILES: CC(C)C[C@H](NC(=O)[C@H](Cc1ccccc1)NC(=O)[C@@H](Cc1ccc(O)cc1)NC(=O)C(c1ccccc1)c1ccccc1)C(=O)N1CCC[C@H]1C(=O)N[C@H](CO)C(=O)N[C@@H](CCC(N)=O)C(=O)N[C@@H](Cc1ccccc1)C(=O)N[C@H](C)C(=O)N1Cc2ccccc2C[C@H]1C(=O)N[C@@H](CO)C(=O)O
  EC50 (µM), activation of Tango CMKLR1-bla U2OS cells: 0.026 µM

B11: YW-118 (peptide)
peptide: [dY]FLP[dS]Q[2Nal][dA][Tic]S-OH
modifications: N-terminus assumed
SMILES: CC(C)C[C@H](NC(=O)[C@H](Cc1ccccc1)NC(=O)[C@H](N)Cc1ccc(O)cc1)C(=O)N1CCC[C@H]1C(=O)N[C@H](CO)C(=O)N[C@@H](CCC(N)=O)C(=O)N[C@@H](Cc1ccc2ccccc2c1)C(=O)N[C@H](C)C(=O)N1Cc2ccccc2C[C@H]1C(=O)N[C@@H](CO)C(=O)O
  EC50 (µM), activation of Tango CMKLR1-bla U2OS cells: 0.0069 µM

## [dY]FLP[dS]QF[dA][Ti1c]S-OH [YW-150]
  EC50 (µM), activation of Tango CMKLR1-bla U2OS cells: 0.062 µM
